The text below walks through data of article PMC6015067.

Assay [1] concerns the target LIM protein Ajuba (human (endogenous in HTC75)) (UniProt Q96IF1). Description: co-IP; IP-Western of endogenous proteins from HTC75 total extracts (also IMR90) with Ajuba serum or antibodies to RPA70, RPA32 or RPA14; cells untreated, treated with 2 mM hydroxyurea for 24 hr (association reduced) or synchronized by double thymidine block and released for 2 hr (no perceptible effect).

In assay [2] the target is His-tagged full-length Ajuba (UniProt Q96IF1). The assay can be described thus: pull-down; His-tag pull-down on Ni-NTA beads of proteins co-translated in one rabbit reticulocyte lysate reaction with 35S-methionine; beads blocked with 2% BSA, 30 minutes at room temperature, TBST pH 8.0, six washes; autoradiography, signal normalized to input and number of methionines.

RPA70-OB½ABC, sequence (P27694 234-612): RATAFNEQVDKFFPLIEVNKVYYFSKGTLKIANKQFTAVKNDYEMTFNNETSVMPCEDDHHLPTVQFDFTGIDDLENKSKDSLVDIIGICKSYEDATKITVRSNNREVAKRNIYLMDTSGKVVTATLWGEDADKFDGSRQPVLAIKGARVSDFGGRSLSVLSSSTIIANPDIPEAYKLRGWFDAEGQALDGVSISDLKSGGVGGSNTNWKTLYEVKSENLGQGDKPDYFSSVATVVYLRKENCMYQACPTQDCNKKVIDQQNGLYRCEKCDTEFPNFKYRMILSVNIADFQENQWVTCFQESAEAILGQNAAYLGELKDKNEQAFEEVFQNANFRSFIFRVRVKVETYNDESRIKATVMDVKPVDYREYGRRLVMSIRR

As for total RPA, in assay [1], the pull down efficiency (% of total RPA in association with Ajuba) lay within 2 to 5%.
In turn, “RPA70-OB½ABC (from UniProt P27694 234-612) (domain or fragment)” gave a pull down relative to full-length RPA70 (set at 100%) in assay [2] of 58.7%.
